Measured values from the supplement of paper PMC12636428.

Test system: Saccharomyces cerevisiae
Experiment: transcriptional activation domain activity (GFP:mCherry ratio, weighted mean of sorted bins, harmonized to initial dataset scale) (arbitrary fluorescence ratio units); higher = stronger transcriptional activation
Settings: beta-estradiol 1 µM; induction time 4 h
Experimental: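 53-aa protein tiles (fungal proteins plus yeast TF control tiles) fused C-terminally to a DBD-estrogen-binding domain-mCherry synthetic TF, integrated in S. cerevisiae (URA3 locus) with a GFP reporter. Cells were induced with 1 uM beta-estradiol for 4 h at 30 C, FACS-sorted into 8 bins by GFP:mCherry ratio and barcodes sequenced. Activity is the read-weighted mean bin fluorescence (GFP:mCherry), averaged over barcodes (median 12); tiles under 50 reads were discarded. New active-learning values were harmonized by linear fit onto the scale of the initial (Hummel et al.) dataset. The assay saturates at low and high signal.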

SGLVIIFFMITRYFTATAEHLDHLSRCKVHNVPPYSYVFWICILGLELLLCSL
transcriptional activation domain activity: 48600

LLLHYKHEEFVGHEETDFVVMGFTKLLLCCISSLKSFKKPLNAGPLIERIFRK
transcriptional activation domain activity: 84700

HVDQWTVIEQCLLYHQTNFIYFLFFAPLPPFLCLFFLLFVSLVFLCFDPFPLI
transcriptional activation domain activity: 42500

DSDSEEEEEGWQLSPHDVDKVRQMLEPDEVSLQRALQTTPAMRIGMIIWLVIT
transcriptional activation domain activity: 53000

PLHLLGDKAEVEIGGVWSAGMAYGSRELVERHLFSLYFMLPLVAVCIGFLYHN
transcriptional activation domain activity: 41200

FSHIQPGLNVPVRTIMFCFLFNVAFGLLYLGPSVAFGAYVASCTILLNISYAF
transcriptional activation domain activity: 70800

LLNIGNGGVPKNTNVHLGAQFFYLSFLEFILSCLTLCSRSWAWFHVVCVVHLR
transcriptional activation domain activity: 62300

MLWLVSWWLCLVVSNTLLFYLGEGGLVCFILCNSSFQVYLFLDLFIFLLFIHS
transcriptional activation domain activity: 39800

MTSRHSFKAIKVLVICCVFLFFLLLKRKDHFNSCCLIFHIKIGLIDVLIFFYF
transcriptional activation domain activity: 41900

PNLLMPCPWRSMDLCIFFRLAVGFFFLFLFPLSLSLPPSPFFFLFFSTPVIMV
transcriptional activation domain activity: 62500

MGMEYIFCLSLSSWGYIFFSFHGFPLFLIFIFSFLARFFLLFFHLFFSFSFFA
transcriptional activation domain activity: 65400

KAFRLVHGILQRSHPRTLDRLFSSMLWLLHNGLTEVALLLRDYIRSLSIRLTS
transcriptional activation domain activity: 53000

QDNLNIEDKEEMSPNIEIKNEQNMTDSNDILGVFDQLDAQLFGKYLPLNYPSE
transcriptional activation domain activity: 81700

QPPPPPGRKRKKAENGEPSTPAEPRRLRRSHEACARCRSKKIKVSTQASAVIL
transcriptional activation domain activity: 53600

VFTDSLFQIVLVGRLTGFFYSFSFLFFFLSFFFFFSFIPFFPPFLYGLFFFLF
transcriptional activation domain activity: 67600

KEKSASERKEEKRQKKMRGEDVSDSEEEKRKRKDKQRGQRVHAVGSGTTSGAS
transcriptional activation domain activity: 35900

EEDAGATSEPASTPKLKPETKPKPKAAPKPKPKAEETDSSAKPKAKPKARASS
transcriptional activation domain activity: 33000

ERKDREKMKAKLKEAKREKQRKERAREREKERERKRKEKEKEKKRKEKERERK
transcriptional activation domain activity: 38000

PDEVASEASQPAEPAAASRAESPAAASVYEEAREPQEVQEERVASPVVAATPA
transcriptional activation domain activity: 48300

NGHIYPLSLNLFCFFSPMHAILYCFSISWDDYLSLAVLHSGLTIQMVLLVWHF
transcriptional activation domain activity: 50000

VSFRLLVYALVSHVIFGIVLLIDCFYAFPGWHCSLLAFLINFNILFSASIFFC
transcriptional activation domain activity: 55200

MLFLFFFIHILHPFFFFFNPFFLFLSFFFISFCTSVCLCMRKQLTRIIFLNYI
transcriptional activation domain activity: 50500

QENAQTEKEERDEKERAREKGNEKEKGNESEKGDEKKKGNEKKKGTERGKGKG
transcriptional activation domain activity: 28100

MIVLVLLFLVFCLLLLVGMVDERGMAGDMYKLYRTPASCRVLALSNPIVRGAW
transcriptional activation domain activity: 52800

LLGVGYAMVLAWFMCLFYLFPFLGALTLYFVMDVVDLASRTLYKLLHTLPILV
transcriptional activation domain activity: 52500

TKPAPKKAGGRPKKVVAEPEPAAEPSESEEPKLAPKRAGGRPKKVVAPVAEPE
transcriptional activation domain activity: 19400

LLQLWYMHKSLVLADPTLVCPLAFCFYNLSSIINGLVYFDQFAFLSTLHLLLV
transcriptional activation domain activity: 25400

NKMKVHINKTNYELDSKEAVMAVLGTHRVEVSVLCLLYLVLRRHKKILDFASS
transcriptional activation domain activity: 48200

RLVYLMAKNKFGADAQQEFIGDYFRTDSATFRDVRVLFGLLSRSWFGRVWCIQ
transcriptional activation domain activity: 52200

MGVLSFRFLFWSFFFLSVMFLFLFFVFLLGYWFWFWFWLLVWLLVGFCCLVFF
transcriptional activation domain activity: 38500

EKTRRNREKREKKKNKGKGGKGGGGGGNGGGGGGSGNAATVTAAAENGAGKKE
transcriptional activation domain activity: 30900

MPLQLRCLYNCDVSLIVMLLLGLLLGIFPSLHIEICICSRDLLLICMGMWPVR
transcriptional activation domain activity: 45500

APSRRTGRTSTAGSASESRPTSSCTSPRRPPTPPARPPASPRTRRTSPRRPSA
transcriptional activation domain activity: 31000

SALFCKIWTIIQAYYIVISFISIHNCMPCTMPFHHECVGSIPLWLWVTWLPSI
transcriptional activation domain activity: 40400

KSWGKSLVGLMGRLKRQPICVLVKTDEINHLLHMILYVRENEETSCIKIVHFC
transcriptional activation domain activity: 37900

DQKPIIDQKPLALLLEKLTVSEPPRGGTLGPAWMRERLEASGQMALWKRIVEK
transcriptional activation domain activity: 34100

MVEAQDSSLSSTLFYLSFLDIGATFYTFLLLFFFLEDLEGFLLFIVFWMLLLV
transcriptional activation domain activity: 44100

EAAAAAKRKRRKATSDSPEQARRGHVARKTAVACNFCRGRKLRCNGAKPSCSN
transcriptional activation domain activity: 22800

EVSIDGVQTVTYCGRDALPEHDKVTEVGWVLDRGILKLGVLYLWLNCRHMCVT
transcriptional activation domain activity: 65400

ESNVAGTAGSKPRKPRAKTQKKMRPSENSQAEKSDRSATRKSREPTGTRRGRK
transcriptional activation domain activity: 24800

PLAGNSPGLPPEEVRNNSENASHNNETGPIETELAQTISNEFWTAYNLGWEEL
transcriptional activation domain activity: 56400

RRRWINSTIHNLFEVVLLPDLCGFCCFSMRFVVLIDLIGTLTLPVSVIYLVYL
transcriptional activation domain activity: 63200

LRNGYVDLGTHCITLFAQLMYVDCRTVFAEQIFTLAWYTTKGMGTIIATIGDY
transcriptional activation domain activity: 43400

MYRWISSIDAICVHLWGYMKNLACLLLTHIFYCLASMCLLLVDTLITGVGNIP
transcriptional activation domain activity: 61100

MDSLFFFFFLLFFFSSCFGFGCSVGLFLFFSVVCNLYFCLLRSYMYLLALLFT
transcriptional activation domain activity: 51500

EAEDTAAARLKRAKSERMRLRTRVVQAMWAEASEEERGAAEAEVAREKEAIRA
transcriptional activation domain activity: 30400

MHSVTAALRSLSLAGRRSLSTSAPRWEQAAAEAVASTSTWTPQTQRTGVLARK
transcriptional activation domain activity: 14900

MGLVYPCWLVFFGWFPSFLFLIFLSFIINFILVFSFLLFTFIPPLFSLLSVQF
transcriptional activation domain activity: 37900

ADKKAKKAAPPPKPESSSSSDSSESDSDAPKAAATVKAAAAAVKKAGKKAVAS
transcriptional activation domain activity: 60900

SVYCLLLILFIPYPFSDVFAKCKHASLEGLACGDFPHNQLSIYLAAILCLLIA
transcriptional activation domain activity: 49800

VIHTTAKPYKLHFSNTLLVSTVGLLALLVTTMVFVPWNNYYLPRKWGVFLICF
transcriptional activation domain activity: 42700

MGTTGWRTRAIPYGFVFFYFILVMSLFFSSPLLTTTAVFILFYLLFLFSCYSS
transcriptional activation domain activity: 36000

GKRARGVGKLRPSVVLYNELHKDGEGVGEVARRDLVGSSKGKGRSGVDTLLVV
transcriptional activation domain activity: 59800

MAGENGGLGAFRDGSADGVGRGADLVSSLEQTRGYQMEMFQESLRRNIIVAMD
transcriptional activation domain activity: 62800

MLCGAMPIVSLFSFYTFFFVFWCYLLKFFSVMAWLSTHIALLPSFFVLLTFSL
transcriptional activation domain activity: 40600
